Laboratory results taken from PMC6138639, “The ZZ-type zinc finger of ZZZ3 modulates the ATAC complex-mediated histone acetylation and gene activation” (Nature Communications, 2018).

Molecular target: ZZZ3 ZZ domain (aa 800–903), GST cleaved (human) (UniProt Q8IYH5)
Assay: other fluorescence titration; tryptophan fluorescence; 1.0 µM ZZZ3 ZZ (aa 800–903) with increasing histone peptide; 25 °C; 20 mM Tris–HCl pH 7.2, 150 mM NaCl, 1 mM DTT; triplicates

ZZZ3 ZZ domain (aa 800–903), GST cleaved (human), sequence (Q8IYH5 800-903): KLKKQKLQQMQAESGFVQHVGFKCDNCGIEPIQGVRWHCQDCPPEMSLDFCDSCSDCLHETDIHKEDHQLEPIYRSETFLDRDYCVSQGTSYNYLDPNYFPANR

In the case of “unmodified H3 peptide of the tryptophan fluorescence and NMR titration experiments”, the Kd is reported as 29 µM.

In the case of “H3K4ac peptide of the tryptophan fluorescence and NMR titration experiments”, the Kd is reported as 8.2 µM.
